Bridge positions count the residues as written; N and C are the ends. Square brackets hold non-standard residues; d marks the D form. R8 = C=CCCCCCC[C@@](C)(N)C(=O)O; S5 = C=CCCC[C@](C)(N)C(=O)O
Molecular target: T1, recombinant HDM2 17-125 (human, UniProt Q00987 17-125)
T1 construct: range 17-125
Assay: fluorescence polarization competition: unlabeled peptide titrated against FITC-WT p53 14-29 (25 nM) bound to HDM2 17-125
Method: (§1) FIG. 12 Competition by fluorescence polarization. Fluoresceinated, wild type p53₁₄₋₂₉ (25 nM) was incubated with recombinant HDM2₁₇₋₁₂₅. Unlabeled SAH-p53s were titrated into the mixture, and displacement of the labeled ligand was measured by fluorescence polarization.
as §1, with “The ability of various SAH-p53s to compete with wild-type p53₁₄₋₂₉ for binding to HDM2₁₇₋₁₂₅ was assessed as follows.” for “FIG. 12 Competition by fluorescence polarization.”

binding result: binds
B1: SAH-p53-4 (peptide)
peptide: Ac-LSQETF[R8]DLWKLL[S5]EN-NH2
modifications: staple 7-14
notes: the FITC-labeled form is m4; also called unlabeled SAH-p53-4; Ac-SAH-p53-4
